± gives the standard deviation of the averaged measurements.
test system: ATP; assay: switch fluorescence ratio, 500 uM ATP over buffer (Cy3 cluster intensity, sum of 5 cycles each) (fold (ratio)); higher = stronger signal-on switching upon ATP binding; sequences stand for … in TCGTCGGCAGCGTCAGATGTGTATAAGAGACAGTTTTTTTTTTTTTTTTTTTTTTTTT…TC; details: aptamer strand: ATP DNA aptamer (quencher-CACCTGGGGGAGTATTGCGGAGGAAGG + anchor), 100 nM annealed; ATP concentration: 500 uM
Outline: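 Exposure to 500 uM ATP lasted 15 min at 22 °C before imaging, and a selection-buffer image was taken beforehand, for Cy3-labelled switching-strand clusters on a modified Illumina MiSeq flow-cell annealed to 100 nM quencher-labelled ATP aptamer. Five buffer/ATP cycles were run with NaOH stripping and re-annealing between them. The fluorescence ratio per cluster is summed target-cycle over summed buffer-cycle Cy3 intensity, averaged per switch-domain sequence. Clusters outside 100-1000 RFU were excluded.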

Sequence | switch fluorescence ratio
ACAGGCACGC | 1.069 ± 0.0017
ACAGGCGATC | 1.09 ± 0.018
ACAGGCTGAG | 0.9973 ± 0.0097
ACAGGCTTTT | 1 ± 0.018
ACAGGGAAAT | 0.994 ± 0.038
ACAGGGATTT | 1.03 ± 0.041
ACAGGGGGGT | 1.17 ± 0.24
ACAGGGTTCT | 0.987 ± 0.025
ACAGGTAAGG | 1.055 ± 0.0073
ACAGGTCTGT | 0.9797 ± 0.0047
ACAGGTGCCG | 1.13 ± 0.11
ACAGGTTGTT | 1.03 ± 0.071
ACAGGTTTGA | 1.03 ± 0.021
ACAGGTTTGC | 1.007 ± 0.0039
ACAGTAGGGA | 1.049 ± 0.0093
ACAGTCGGCG | 1.03 ± 0.021
ACAGTCTATT | 1.02 ± 0.043
ACAGTGAAAT | 1.02 ± 0.039
ACAGTGCGCG | 1.03 ± 0.083
ACAGTTTTGG | 1.017 ± 0.0047
ACATAAGGTA | 1.04 ± 0.03
ACATAAGGTT | 1.03 ± 0.052
ACATAGAAAA | 1.01 ± 0.044
ACATAGGGTA | 1.01 ± 0.013
ACATAGTCGA | 1.03 ± 0.045

Sequence | switch fluorescence ratio
ACATATGGAT | 1 ± 0.015
ACATATTTTA | 1.03 ± 0.016
ACATCAGATC | 1 ± 0.011
ACATCCATTT | 1.02 ± 0.05
ACATCCGAGT | 1.05 ± 0.054
ACATCGGAAC | 1.04 ± 0.015
ACATCGGGGG | 1.013 ± 0.0089
ACATCGGTTG | 0.976 ± 0.028
ACATCGTCGG | 1.014 ± 0.0091
ACATCTCAGT | 1.06 ± 0.059
ACATGAAGCA | 1.06 ± 0.025
ACATGAGATT | 1.04 ± 0.015
ACATGAGTGT | 1.02 ± 0.024
ACATGCGTGG | 0.992 ± 0.022
ACATGGGCGT | 0.977 ± 0.036
ACATGGGGGC | 1 ± 0.045
ACATGGGGGT | 1.01 ± 0.014
ACATGGGGTC | 0.977 ± 0.012
ACATGGTTAT | 0.994 ± 0.018
ACATGTAGGA | 1 ± 0.032
ACATGTGACG | 0.98236 ± 0.00039
ACATTAAGGG | 1.06 ± 0.031
ACATTAGGCT | 1.02 ± 0.046
ACATTCTTTA | 0.9628 ± 0.0042
ACATTGATAT | 1.01 ± 0.011

Sequence | switch fluorescence ratio
ACATTTAGCT | 1.01 ± 0.03
ACATTTTTGC | 0.9897 ± 0.0011
ACCAAATACT | 1.26 ± 0.014
ACCAATATCT | 1.01 ± 0.068
ACCAATGGGG | 1.02 ± 0.036
ACCAATTCGC | 1.06 ± 0.029
ACCAATTGAA | 1.01 ± 0.05
ACCACCGAGG | 1.045 ± 0.0061
ACCACGGGAA | 1.05 ± 0.032
ACCAGCAGCC | 1.21 ± 0.025
ACCAGGCCGC | 1.08 ± 0.03
ACCAGGGAAA | 1.01 ± 0.014
ACCAGGGGGA | 1.01 ± 0.023
ACCAGGGGTT | 1.19 ± 0.027
ACCAGGTGAT | 4.78 ± 0.26
ACCAGTCTAG | 0.979 ± 0.018
ACCATTTTTT | 0.9862 ± 0.006
ACCCAAAAAG | 1.05 ± 0.12
ACCCACGGAG | 1.17 ± 0.014
ACCCAGGAGC | 1.35 ± 0.12
ACCCAGGTA | 2.1 ± 0.29
ACCCGCTCTT | 1.13 ± 0.022
ACCCTAGTTG | 1.148 ± 0.0094
ACCCTCCGGC | 2.45 ± 0.026
ACCCTTGGGG | 1.02 ± 0.064

Sequence | switch fluorescence ratio
ACCGAGGGGT | 1.06 ± 0.077
ACCGATTTTG | 0.994 ± 0.022
ACCGATTTTT | 1.047 ± 0.01
ACCGCAGGGG | 1.42 ± 0.6
ACCGCATAGT | 2.57 ± 0.099
ACCGCGAGGA | 1.54 ± 0.57
ACCGCTCAGT | 1.06 ± 0.023
ACCGCTTCTG | 1.04 ± 0.032
ACCGGGCGAG | 1 ± 0.042
ACCGGGGAAT | 1.02 ± 0.027
ACCGGGGGCC | 1.02 ± 0.013
ACCGGGTTTT | 1.03 ± 0.02
ACCGTATCTT | 1.06 ± 0.053
ACCGTCCAAA | 1.03 ± 0.024
ACCGTGCCTG | 1.03 ± 0.072
ACCGTGGGTC | 1.02 ± 0.029
ACCGTTACTT | 1.24 ± 0.065
ACCGTTCACG | 1.02 ± 0.031
ACCGTTCTGA | 1.016 ± 0.0092
ACCTACCTCT | 1.48 ± 0.14
ACCTACTGAG | 1.351 ± 0.0076
ACCTAGTCGG | 1.01 ± 0.015
ACCTAGTGGG | 1.005 ± 0.0087
ACCTATGAGG | 1.02 ± 0.029
ACCTATTTTT | 1.01 ± 0.017

Source: the supplement of paper PMC10126150
